Key:
[1] = molecular target: actin-related protein (Arp) 2/3 complex (UniProt P61160); assay: SPR; Arpin variants and dual-tailed peptides against the Arp2/3 complex; who was immobilised was not shown; hArpin as the dimer-enriched population
[2] = molecular target: GST-aCT (chimeric protein with Arpin's CT fused to the C-terminus of glutathione S-transferase); assay: SEC; recombinant GST-aCT

## ArpinCT (residues 192–226) (from UniProt Q7Z6K5 192-226) (peptide)
[1]
  Kd: 17.8 µM

## GST-aCT (chimeric protein with Arpin's CT fused to the C-terminus of glutathione S-transferase)
[1]
  Kd: 2.5 µM
[2]
  stoichiometry N: 2

## full-length human Arpin (hArpin) (from UniProt Q7Z6K5 1-226) (natural protein)
[1]
  Kd: 14.1 µM
